molecular target: HLA-A*01:01 (Homo sapiens, UniProt P04439, A114D/A174V/A182V/D101N/D185E/E176A/E190D/L180R/Q94H/R68K/S129P/T187R/V100A/V91M/W191G); assay: MHC binding assay: UV-ligand exchange, ELISA of stabilized MHC complexes (peptide exchange yield); conditions: binding to HLA-A*01:01, UV-ligand exchange
Text: Candidate peptides for T cell based therapies according to the present invention were further tested for their MHC binding capacity (affinity). The individual peptide-MHC complexes were produced by UV-ligand exchange, where a UV-sensitive peptide is cleaved upon UV-irradiation and exchanged with the peptide of interest as analyzed. Only peptide candidates that can effectively bind and stabilize the peptide-receptive MHC molecules prevent dissociation of the MHC complexes. To determine the yield of the exchange reaction, an ELISA was performed based on the detection of the light chain (β2m) of stabilized MHC complexes. The assay was performed as generally described in Rodenko et al. (Rodenko et al., 2006)
96 well MAXISorp plates (NUNC) were coated over night with 2 ug/ml streptavidin in PBS at room temperature, washed 4× and blocked for 1 h at 37° C. in 2% BSA containing blocking buffer. Refolded HLA-A*02:01/MLA-001 monomers served as standards, covering the range of 15-500 ng/ml. Peptide-MHC monomers of the UV-exchange reaction were diluted 100-fold in blocking buffer. Samples were incubated for 1 h at 37° C., washed four times, incubated with 2 ug/ml HRP conjugated anti-β2m for 1 h at 37° C., washed again and detected with TMB solution that is stopped with […]. Absorption was measured at 450 nm.

Substance | Peptide exchange
115 (NEIDIHSIYFY; listed as Homo sapiens) [compound 115] | ++ (>20% = ++)
38 (KSWSQSSSLMY; listed as Homo sapiens) [compound 38] | +++ (>50 = +++)
43 (ETEPERHLGSY; listed as Homo sapiens) [compound 43] | +++ (>50 = +++)
316 (YTCEECGQAF; listed as Homo sapiens) [compound 316] | ++ (>20% = ++)
34 (SSWSAGENDSY; listed as Homo sapiens) [compound 34] | +++ (>50 = +++)
259 (APDEVVALL; listed as Homo sapiens) [compound 259] | ++ (>20% = ++)
355 (MADRGEARL; listed as Homo sapiens) [compound 355] | ++ (>20% = ++)
132 (RTHIGYKVY; listed as Homo sapiens) [compound 132] | +++ (>50 = +++)
183 (LADTDLGMTF; listed as Homo sapiens) [compound 183] | ++ (>20% = ++)
168 (VQPGETYTY; listed as Homo sapiens) [compound 168] | +++ (>50 = +++)
291 (TSDVTGSLTY; listed as Homo sapiens) [compound 291] | ++++ (>75% = ++++)
160 (EVLGEEMYAY; listed as Homo sapiens) [compound 160] | ++ (>20% = ++)
287 (ENSIEDLQY; listed as Homo sapiens) [compound 287] | +++ (>50 = +++)
127 (VPFNLITEY; listed as Homo sapiens) [compound 127] | + (>10% =+)
378 (TAKAPSTEY; listed as Homo sapiens) [compound 378] | ++ (>20% = ++)
286 (ATDMEGNLNY; listed as Homo sapiens) [compound 286] | +++ (>50 = +++)
39 (WSQSSSLMY; listed as Homo sapiens) [compound 39] | ++++ (>75% = ++++)
251 (GIEMTYETY; listed as Homo sapiens) [compound 251] | ++ (>20% = ++)
5 (FMVIAGMPLFY; listed as Homo sapiens) [compound 5] | +++ (>50 = +++)
192 (LAFYYGMY; listed as Homo sapiens) [compound 192] | ++ (>20% = ++)

Substance | Peptide exchange
41 (HSDLLEDSKY; listed as Homo sapiens) [compound 41] | +++ (>50 = +++)
333 (LSDPQAELQFY; listed as Homo sapiens) [compound 333] | ++++ (>75% = ++++)
6 (ARDPITFSF; listed as Homo sapiens) [compound 6] | ++ (>20% = ++)
264 (YRDPVFVSL; listed as Homo sapiens) [compound 264] | ++ (>20% = ++)
150 (FTTLSDLQTNMA; listed as Homo sapiens) [compound 150] | ++ (>20% = ++)
175 (GLEYEAPKLY; listed as Homo sapiens) [compound 175] | ++ (>20% = ++)
377 (YADPSANRDLL; listed as Homo sapiens) [compound 377] | ++ (>20% = ++)
138 (IPVHDSVGVTY; listed as Homo sapiens) [compound 138] | +++ (>50 = +++)
110 (IGDKVDAVY; listed as Homo sapiens) [compound 110] | ++ (>20% = ++)
156 (STALSILLL; listed as Homo sapiens) [compound 156] | ++ (>20% = ++)
270 (DLKIDLAAQY; listed as Homo sapiens) [compound 270] | ++ (>20% = ++)
174 (TSEVEGLAFVSY; listed as Homo sapiens) [compound 174] | +++ (>50 = +++)
250 (GYVCNACGLY; listed as Homo sapiens) [compound 250] | ++ (>20% = ++)
349 (HLLSVSLYY; listed as Homo sapiens) [compound 349] | + (>10% =+)
149 (PIMSSSQALY; listed as Homo sapiens) [compound 149] | ++ (>20% = ++)
306 (KSFETTVRY; listed as Homo sapiens) [compound 306] | ++ (>20% = ++)
323 (KTLQKPVLPLY; listed as Homo sapiens) [compound 323] | ++ (>20% = ++)
229 (MTDVFIDY; listed as Homo sapiens) [compound 229] | +++ (>50 = +++)
363 (LTDRDVSFY; listed as Homo sapiens) [compound 363] | ++++ (>75% = ++++)
219 (KTELETALYY; listed as Homo sapiens) [compound 219] | +++ (>50 = +++)

Substance | Peptide exchange
224 (RTDEGDNRVW; listed as Homo sapiens) [compound 224] | ++ (>20% = ++)
158 (EVTDRNMLAF; listed as Homo sapiens) [compound 158] | +++ (>50 = +++)
196 (RLAQYTIERY; listed as Homo sapiens) [compound 196] | ++ (>20% = ++)
116 (RSDIGEFEW; listed as Homo sapiens) [compound 116] | ++ (>20% = ++)
177 (LVDGKWQEF; listed as Homo sapiens) [compound 177] | ++ (>20% = ++)
320 (QALQDKLQTFY; listed as Homo sapiens) [compound 320] | ++ (>20% = ++)
94 (KPSAVKDSIY; listed as Homo sapiens) [compound 94] | ++ (>20% = ++)
319 (FTDPHIITF; listed as Homo sapiens) [compound 319] | ++++ (>75% = ++++)
395 (ILKGGSGTY; listed as Homo sapiens) [compound 395] | ++ (>20% = ++)
263 (DCMDTEGSYM; listed as Homo sapiens) [compound 263] | ++ (>20% = ++)
191 (FTRAFDQLRM; listed as Homo sapiens) [compound 191] | +++ (>50 = +++)
337 (FTESNQYNIY; listed as Homo sapiens) [compound 337] | ++++ (>75% = ++++)
153 (HSIEVFTHY; listed as Homo sapiens) [compound 153] | ++ (>20% = ++)
301 (ESQTCASDY; listed as Homo sapiens) [compound 301] | +++ (>50 = +++)
314 (PPEANSLQGALY; listed as Homo sapiens) [compound 314] | ++ (>20% = ++)
327 (IMLSVDQHLY; listed as Homo sapiens) [compound 327] | +++ (>50 = +++)
125 (FQYELRELY; listed as Homo sapiens) [compound 125] | ++++ (>75% = ++++)
300 (VSINPNSGDIY; listed as Homo sapiens) [compound 300] | +++ (>50 = +++)
7 (ASDDVRIEVGLY; listed as Homo sapiens) [compound 7] | ++++ (>75% = ++++)
9 (QLDSTLDSY; listed as Homo sapiens) [compound 9] | +++ (>50 = +++)
